Measurements reported in patent US7314724B2, “Therapeutic applications of laminin and laminin-derived protein fragments” (University of Washington, priority 1996, dated 2008).
“Also recorded” adds a separate entry of the source.

What was measured:
[1] = biological target: T1, Aβ (1-40) (Homo sapiens, UniProt P05067); experiment: Thioflavin T fluorometry, Aβ (1-40) amyloid fibril formation; assay type: biochemical; settings: comparison of basement membrane components (FIG. 3), 25 μM Aβ (1-40), 100 nM, 1 hour to 1 week
T1 construct: 2 μg of Aβ (1-40)(Bachem Inc., Torrance, Calif. USA; Lot #WM365); purchased Bachem Inc., Torrance, Calif; Lot #WM365
Experimental: The effects of laminin on Aβ fibrillogenesis was also determined using the previously described method of Thioflavin T fluorometry (Naiki et al, Lab. Invest. 65:104-110, 1991; Levine III, Protein Sci. 2:404-410, 1993; Levine III, Int. J. Exp. Clin. Invest. 2:1-6, 1995; Naiki and Nakakuki, Lab. Invest. 74:374-383, 1996). In this assay, Thioflavin T binds specifically to fibrillar amyloid and this binding produces a fluorescence enhancement at 480 nm that is directly proportional to the amount of amyloid fibrils formed (Naiki et al, Lab. Invest. 65:104-110, 1991; Levine III, Protein Sci. 2:404-410, 1993; Levine III, Int. J. Exp. Clin. Invest. 2:1-6, 1995; Naiki and Nakakuki, Lab. Invest. 74:374-383, 1996). In a first study, the effects of EHS laminin on Aβ (1-40) fibrillogenesis was assessed. For this study, 25 μM of freshly solubilized Aβ (1-40)(Bachem Inc., Torrance, Calif., USA; Lot #WM365) was incubated in microcentrifuge tubes at 37° C. for 1 week (in triplicate), either alone, or in the presence of 100 nM EHS laminin (Sigma Chemical Company, St. Louis, Mo., USA) in 100 mM Tris, 50 mM NaCl, pH 7.0 (TBS). 100 nM of laminin utilized for these studies represented a Aβ:laminin molar ratio of 250:1. 50 μl aliquots were then taken from each tube for analysis at 1 hr, 1 day, 3 days, and 1 week. In a second set of studies, the effects of laminin on Aβ (1 -40) fibril formation was directly compared to other basement membrane components including fibronectin, type IV collagen and perlecan. For these studies, 25 μM of freshly solubilized Aβ (1-40) was incubated in microcentrifuge tubes for 1 week (in triplicate) either alone, or in the presence of 100 nM of EHS perlecan (isolated as previously described)(Castillo et al, J. Biochem. 120:433-444, 1996), fibronectin (Sigma Chemical Company, St. Louis, Mo., USA) or type IV collagen (Sigma Chemical Company, St. Louis, Mo., USA). 50 ul aliquots were then taken for analysis at 1 hour, 1 day, 3 days and 1 week. In a third set of studies, 25 μM of freshly solubilized Aβ (1-40) was incubated in microcentrifuge tubes for 1 week (in triplicate) either alone, or in the presence of increasing concentrations of laminin (i.e. 5 nM, 15 nM, 40 nM and 100 nM). 50 μl aliquots were taken for analysis at 1 hour, 1 day, 3 days and 1 week.
For each determination described above, following each incubation period, Aβ peptides +/− laminin, perlecan, fibronectin or type IV collagen, were added to 1.2 ml of 100 μM Thioflavin T (Sigma Chemical Co., St. Louis, Mo.) in 50 mM phosphate buffer (pH 6.0). Fluorescence emission at 480 nm was measured on a Turner instrument-model 450 fluorometer at an excitation wavelength of 450 nm. For each determination, the fluorometer was calibrated by zeroing in the presence of the Thioflavin T reagent alone, and by seting the 50 ng/ml riboflavin (Sigma Chemical Co., St. Louis, Mo.) in the Thioflavin T reagent to 1800 fluorescence units. All fluorescence determinations were based on these references and any background fluorescence given off by laminin, perlecan, type IV collagen, or fibronectin alone in the presence of the Thioflavin T reagent was always subtracted from all pertinent readings.

[2] = biological target: T2, biotinylated Aβ (1-40) (Homo sapiens, UniProt P05067); experiment: Aβ ligand blot of undigested and V8-, trypsin- or elastase-digested EHS laminin; assay type: binding; settings: 2 μM biotinylated Aβ (1-40), SDS-PAGE under non-reducing conditions
T2 construct: Aβ (1-40) was biotinylated according to the manufacturer's protocol (Pierce, Rockford, Ill.)
Experimental: For these experiments, Aβ (1-40) was biotinylated according to the manufacturer's protocol (Pierce, Rockford, Ill.). For the ligand studies, intact EHS laminin was left undigested, or digested with V8 or trypsin (Sigma Chemical Company, St. Louis, Mo., USA). More specifically, 2 μg of trypsin or V8 protease in 2 μl of 50 MM Tris-HCl buffer (pH 8.0) were added to 50 μl of laminin (50 μg)(in the same buffer) and incubated overnight at 37° C. The next day, 10 μl of protease-digested laminin (or undigested laminin) was mixed with 10 μl of 2× sodium dodecyl sulfate polyacrylamide gel electrophoresis (SDS-PAGE) sample buffer, and heated for 5 minutes in a boiling water bath. SDS-PAGE was performed according to the method of Laemmli (Laemmli, U.K. Nature 227:680-685, 1970), or according to the method of Schägger and Jagow (Schägger and Jagow, Anal. Biochem. 166:368-379, 1987) using a Mini-Protean II electrophoresis system (Biorad) with precast 4-15% Tris-Glycine or 10-20% tricine polyacrylamide gels, respectively, and under non-reducing conditions. Electrophoresis occurred at 200V for 45 minutes along with pre-stained molecular weight standards. After SDS-PAGE (10-20% tricine or 4-15% Tris-Glycine gels) was performed as described above, the separated laminin and its fragments (total protein of 10 μg/lane) were transferred to polyvinylidine difluoride membrane (PVDF) using a Mini transblot electrophoresis transfer cell (Biorad, Hercules, Calif., U.S.A.). Electrotransfer was performed at 100V for 2 hours. Following transfer, membranes were rinsed with methanol and dried. The fragment(s) of laminin involved in binding to Aβ were then detected by using biotinylated-Aβ (1-40), as described above. Blots were probed for 2 hours with 2 μM biotinylated Aβ (1-40) in TTBS. The membranes were then rinsed three times (10 seconds each) with TTBS, probed for 30 minutes with strepavidin alkaline phosphatase conjugate (Vectastain), rinsed again (as described above), and followed by the addition of an alkaline phosphatase substrate solution (Vectastain). Following color development, the reaction was stopped by flushing the membranes with double distilled water. In the next set of studies, we determined whether small fragment(s) of laminin generated by elastase digestion would bind to Aβ. […] For these experiments, Aβ (1-40) was biotinylated according to the manufacturer's protocol (Pierce, Rockford, Ill.). For the ligand studies, intact EHS laminin was left undigested, or digested with elastase (Sigma Chemical Company, St. Louis, Mo., USA). For elastase digestion, 2 μg of elastase in 8 μl of 50 mM Tris-HCl buffer (pH 8.0) was added to 50 μl of laminin (50 μg)(in the same buffer) and incubated for 1.5 hours or 2.5 hours at 37° C. In addition, as a control, 2 μg of elastase in 50 μl of 50 mM Tris-HCl buffer (pH 8.0) was incubated for 2.5 hours at 37° C. Following the appropriate incubation times as described above, 10 μl of each of the above incubations were mixed with 10 μl of 2× SDS-PAGE electrophoresis sample buffer, and heated for 5 minutes in a boiling water bath. SDS-PAGE was performed according to the method of Laemmli (Laemmli, Nature 227:680-685, 1970) using a Mini-Protean II electrophoresis system with precast 4-15% Tris-Glycine polyacrylamide gels, and under non-reducing conditions. Electrophoresis occurred at 200V for 45 minutes along with pre-stained molecular weight standards (Biorad). After SDS-PAGE was performed as described above, the separated laminin fragments were transferred to PVDF using a Mini transblot electrophoresis transfer cell (Millipore, Bedford, Mass., U.S.A.). Electrotransfer was performed at 100V for 2 hours. Following transfer, membranes were rinsed with methanol, dried and cut into two equal parts which were used for Aβ ligand blotting, or Coomassie blue staining and subsequent amino acid sequencing. The fragment(s) of laminin involved in binding to Aβ were then detected by using biotinylated-Aβ (1-40), as described above. […]

T1 sequence (P05067 672-711 limits assumed): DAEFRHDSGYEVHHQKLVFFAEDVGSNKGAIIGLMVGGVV
T2 sequence (P05067 672-711 limits assumed): as above

Molecule | effect on Aβ (1-40) fibrillogenesis, in words [1] | effect on Aβ (1-40) fibrillogenesis, in words ([1]; listed as Perlecan) | interaction with biotinylated Aβ (1-40) on ligand blot, in words [2] | interaction with biotinylated Aβ (1-40) on ligand blot, in words ([2]; listed as 55 kDa laminin fragment) | interaction with biotinylated Aβ (1-40) on ligand blot, in words ([2]; listed as ˜55 kDa) | interaction with biotinylated Aβ (1-40) on ligand blot, in words ([2]; listed as ˜55 kilodalton fragment) | interaction with biotinylated Aβ (1-40) on ligand blot, in words ([2]; listed as ˜55 kilodalton laminin fragment)
fibronectin [reference compound] | not effective inhibitors; also recorded: only showed significant inhibition of Aβ (1-40) fibrillogenesis at 1 week |  |  |  |  |  | 
perlecan: EHS perlecan, basement membrane component used as comparison [reference compound] | not effective inhibitors | significantly accelerate Aβ (1-40) amyloid formation at 1 day and 3 days |  |  |  |  | 
˜55 kilodalton (kDa) laminin fragment: ˜55 kDa Aβ-binding fragment from V8 or elastase digested mouse EHS laminin; within globular repeats of the laminin A chain (E3 region) (protein) HREHGELPPEPPTLPQPELCAVDTAPGYVAGAHQFGLSQNSHLVLPLNQSDVRKRLQVQLSIRTFASSGLIYYVAHQNQMDYATLQLQEGRLHFMFDLGKGRTKVSHPALLSDGKWHTVKTEYIKRKAFMTVDGQESPSVTVVGNATTLDVERKLYLGGLPSHYRARNIGTITHSIPACIGEIMVNGQQLDKDRPLSASAVDRCYVVAQEGTFFEGSGYAALVKEGYKVRLDLNITLEFRTTSKNGVLLGISSAKVDAIGLEIVDGKVLFHVNNGAGRITATYQPRAARALCDGKWHTLQAHKSKHRIVLTVDGNSVRAESPHTHSTSADTNDPIYVGGYPAHIKQNCLSSRASFRGCVRNLRLSRGSQVQSLDLSRAFDLQGVFPHSCPGPEP |  |  | interact with biotinylated Aβ (1-40) | positive Aβ binding interaction | interacted with Aβ (1-40) | interacts with Aβ | binds biotinylated Aβ
